In test [1] the target is T1, MAT CR23 (human).
T1 construct: range 487-566; also called ST14 CR23; matriptase CR23
Description: solid-phase binding assay; target not given, MAT CR23 is the pair MatRAP1 was selected on. How it is done:
(§1) Solid phase binding assays-Purified, refolded CR protein (1 μg) was bound to Nunc Maxisorp™ 96-well plates in TBS pH 8 supplemented with 5 mM CaCl₂ (TBSC) overnight at 4° C. Wells were washed with TBSC and then blocked with TBSC containing 2% bovine serum albumin (BSA). […] Control wells contained no added ligand. As an additional control, to determine whether the absence of calcium affected binding, 10 mM EGTA was included in the incubation medium for some samples. […] Excess primary antibody was removed and wells washed before incubation with the secondary antibody, HRP-conjugated goat anti rabbit IgG (Bio-Rad). After washing, TMB substrate solutions (Bio-Rad) were added to detect HRP. Color development was stopped with 1N HCl. Absorption at 450 nm was measured with a microplate spectrophotometer (Molecular Devices). Data were plotted and Kd values derived by non-linear regression with the assumption of single-site binding (GraphPad Prism).

Test [2] concerns the target T2, MAT CR12 (human, UniProt Q9Y5Y6 452-524).
T2 construct: also called ST14 CR12; matriptase CR12
T2 sequence: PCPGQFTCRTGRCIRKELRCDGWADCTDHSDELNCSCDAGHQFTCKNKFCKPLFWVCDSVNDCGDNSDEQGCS
Nature of the test: binding of truncated MatRAP1 forms to MAT CR12, relative signal under isomolar conditions. How it is done:
as §1

The target of test [3] is T3, LRP1 CR3-5 (human).
T3 construct: range 852-973; also called L1 CR3-5
Nature of the test: solid-phase binding assay, CR protein coated on plate, anti-RAP detection.

Test [4] has as its target T4, LRP2 CR89 (human, UniProt P98164 1025-1102).
T4 construct: domain: CR89; also called YVWR; L2 CR89; not shown: N-terminal hexahistidine and S-peptide tags of pET30(+)a
The test is described as above.

For test [5], the target named is T3, LRP1 CR3-5. Description: solid-phase assay on coated CR protein, single-site non-linear fit. The procedure:
(§2) Data were plotted and fitted by non-linear regression with the assumption of a single binding site (GraphPad Prism). Kd values with standard deviations were derived from the regression analysis.
as §1

The target in test [6] is T4, LRP2 CR89. The test is described as above. The procedure:
as §2, §1

In test [7] the target is T3, LRP1 CR3-5. Nature of the test: solid-phase assay; OD at the highest ligand concentration as percent of the highest OD of all ligands. The procedure:
as §1

In test [8] the target is T4, LRP2 CR89. The description is as above. How it is done:
as §1

For test [9], the target named is T4, LRP2 CR89. Description: solid-phase assay on coated CR protein, anti-RAP detection, A450. How it is done:
as §2, §1

One may read the Kd as the constant that tells how readily two partners part at equilibrium. A lower Kd goes with a tighter complex.

T3 sequence (Q07954 852-973): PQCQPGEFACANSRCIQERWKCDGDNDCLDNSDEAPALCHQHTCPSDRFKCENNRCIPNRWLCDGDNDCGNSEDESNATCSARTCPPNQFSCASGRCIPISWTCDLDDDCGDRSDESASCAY
T4 sequence (P98164 1025-1102): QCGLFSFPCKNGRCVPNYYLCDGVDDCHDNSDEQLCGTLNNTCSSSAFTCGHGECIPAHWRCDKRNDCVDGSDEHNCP
T1 sequence (Q9Y5Y6 487-566): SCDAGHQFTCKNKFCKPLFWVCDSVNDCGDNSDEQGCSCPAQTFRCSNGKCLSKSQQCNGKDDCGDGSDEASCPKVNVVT

B1: MatRAP1 N-42 without the C-terminal linker and affinity tag (ligand)
chain: FREELKHFGAKIERHNHYQKQLEIAHEWLRHAESVGDGERVSRSREKHALLEGRTKELGYTVKKHLQDLSGRISRAR
notes: Range derived; not shown: N-terminal hexahistidine and S-peptide tags of pET30(+)a
B1: in [1], the “fold increase in affinity over MatRAP1 N-42” value was 2 fold.

B2: MatRAP1 truncated by 52 amino acids at the N-terminus (ligand)
chain: KIERHNHYQKQLEIAHEWLRHAESVGDGERVSRSREKHALLEGRTKELGYTVKKHLQDLSGRISRAR
notes: Range derived from the number of residues removed (52 total); also called MatRAP1 N-52; not shown: N-terminal hexahistidine and S-peptide tags of pET30(+)a
Turning to B2, the binding result in [2] was “no binding”.

B3: MatRAP1 truncated by 10 amino acids at the N-terminus (ligand)
chain: GYSTEAEFEEPRVIDLWDLAQSANLTDKELEAFREELKHFGAKIERHNHYQKQLEIAHEWLRHAESVGDGERVSRSREKHALLEGRTKELGYTVKKHLQDLSGRISRAR
notes: Range derived: d3 starts at 201 and 10 residues were removed; also called MatRAP1 N-10; not shown: N-terminal hexahistidine and S-peptide tags of pET30(+)a
As to B3, in [2], the “fnctn (relative binding signal under isomolar conditions)” value was determined as 0.1.

B4: MegaRAP1 d3 double revertant A256K, E270K (ligand)
chain: LDRLRRVSHQGYTTEAKFEEPRVIDLWDLAQSANLTDKELEAFREELKYFKAKIEKHNHYQKQLEIAHEKLRHAESVGDGERVSRSREKHALLEGRTKELGYTVKKHLQDLSGRISRAR
notes: not shown: N-terminal hexahistidine and S-peptide tags of pET30(+)a
Take B4: the “fold improvement in affinity against the E270K single-site revertant” value in test [3] is around 30 fold. The “fold loss of affinity against the E270K revertant” value in [4] came out at 2 fold. Also, the Kd in test [5] is 4 nM; in test [6], 72 nM. The “% max” value in test [7] came to 93%; in [8] it was 73%.

B5: MegaRAP1 d3 revertant K251E (ligand)
chain: LDRLRRVSHQGYTTEAKFEEPRVIDLWDLAQSANLTDKELEAFREELKYFEAKIEAHNHYQKQLEIAHEELRHAESVGDGERVSRSREKHALLEGRTKELGYTVKKHLQDLSGRISRAR
notes: as for B4
For B5, in test [9], the binding result is listed as “no binding (tested: 100 nM)”. Moreover, the “% max” value in [7] came out at 2%; in [8] it was 11%.

B6: RAP d3 forward mutant K256A, K270E (ligand)
chain: LDRLRRVSHQGYSTEAEFEEPRVIDLWDLAQSANLTDKELEAFREELKHFEAKIEAHNHYQKQLEIAHEELRHAESVGDGERVSRSREKHALLEGRTKELGYTVKKHLQDLSGRISRAR
notes: also called K270E in combination with K256A; not shown: N-terminal hexahistidine and S-peptide tags of pET30(+)a
Regarding B6, the binding result in test [9] is “no binding (tested: 100 nM)”. The figures for the “% max” value in test [7] and in test [8] were 2% and 3%, respectively.

B7: MegaRAP1 d3 double revertant K251E, E270K (ligand)
chain: LDRLRRVSHQGYTTEAKFEEPRVIDLWDLAQSANLTDKELEAFREELKYFEAKIEAHNHYQKQLEIAHEKLRHAESVGDGERVSRSREKHALLEGRTKELGYTVKKHLQDLSGRISRAR
notes: as for B4
In the case of B7, the “fold difference in affinity against the single-site E270K revertant” value in [4] is around 20 fold. For the same molecule, the Kd in test [6] worked out at 153 nM. Moreover, the “% max” value in test [7] and in test [8] was 16% each time.

B8: MegaRAP1 d3 revertant A256K (ligand)
chain: LDRLRRVSHQGYTTEAKFEEPRVIDLWDLAQSANLTDKELEAFREELKYFKAKIEKHNHYQKQLEIAHEELRHAESVGDGERVSRSREKHALLEGRTKELGYTVKKHLQDLSGRISRAR
notes: as for B4
Turning to B8, in test [9], the binding result is listed as “no binding (tested: 100 nM)”. In addition, the “% max” value in test [7] was determined as 6%; in test [8], 2%.

B9: MegaRAP1 d3 revertant K217E (ligand)
chain: LDRLRRVSHQGYTTEAEFEEPRVIDLWDLAQSANLTDKELEAFREELKYFKAKIEAHNHYQKQLEIAHEELRHAESVGDGERVSRSREKHALLEGRTKELGYTVKKHLQDLSGRISRAR
notes: MegaRAP1 d3 with position 217 reverted to wild type; not shown: N-terminal hexahistidine and S-peptide tags of pET30(+)a
Molecule B9 had a Kd in test [6] of 25 nM. Moreover, the “% max” value in test [7] stood at 2%; in test [8], 88%.

B10: RAP d3 forward mutant K270E (ligand)
chain: LDRLRRVSHQGYSTEAEFEEPRVIDLWDLAQSANLTDKELEAFREELKHFEAKIEKHNHYQKQLEIAHEELRHAESVGDGERVSRSREKHALLEGRTKELGYTVKKHLQDLSGRISRAR
notes: also called K270E alone; not shown: N-terminal hexahistidine and S-peptide tags of pET30(+)a
Turning to B10, the binding result in test [9] is given as “no binding (tested: 100 nM)”. In addition, the entries for the “% max” value in [7] and in [8] were 4% and 2%, respectively.

B11: RAP d3 forward mutant E251K (ligand)
chain: LDRLRRVSHQGYSTEAEFEEPRVIDLWDLAQSANLTDKELEAFREELKHFKAKIEKHNHYQKQLEIAHEKLRHAESVGDGERVSRSREKHALLEGRTKELGYTVKKHLQDLSGRISRAR
notes: The paragraph gives only the position; the change E251K follows from the mutagenic primers; not shown: N-terminal hexahistidine and S-peptide tags of pET30(+)a
In the case of B11, the binding result in test [9] is on record as “no binding (tested: 100 nM)”. Besides, the affinity in test [5], expressed as Kd, was 7 nM. Further, the “% max” value in [7] came out at 100%; in test [8], 5%.

B12: RAP d3 forward mutant H249Y (ligand)
chain: LDRLRRVSHQGYSTEAEFEEPRVIDLWDLAQSANLTDKELEAFREELKYFEAKIEKHNHYQKQLEIAHEKLRHAESVGDGERVSRSREKHALLEGRTKELGYTVKKHLQDLSGRISRAR
notes: The paragraph gives only the position; the change H249Y follows from the mutagenic primers; also called single-site RAP d3 mutant at 249; not shown: N-terminal hexahistidine and S-peptide tags of pET30(+)a
B12: the binding result in [9] is listed as “no binding (tested: 100 nM)”. Also, in test [5], the Kd turned out to be 28 nM. Moreover, the “% max” value in test [7] came out at 90%; in test [8] it was 2%.

B13: RAP d3 forward mutant E251K, K270E (ligand)
chain: LDRLRRVSHQGYSTEAEFEEPRVIDLWDLAQSANLTDKELEAFREELKHFKAKIEKHNHYQKQLEIAHEELRHAESVGDGERVSRSREKHALLEGRTKELGYTVKKHLQDLSGRISRAR
notes: also called K270E in combination with E251K; not shown: N-terminal hexahistidine and S-peptide tags of pET30(+)a
Regarding B13, the binding result in test [9] is reported as “no binding (tested: 100 nM)”. Moreover, the entries for the “% max” value in test [7] and in [8] were 4% and 2%, respectively.

B14: MegaRAP1 d3 revertant T213S (ligand)
chain: LDRLRRVSHQGYSTEAKFEEPRVIDLWDLAQSANLTDKELEAFREELKYFKAKIEAHNHYQKQLEIAHEELRHAESVGDGERVSRSREKHALLEGRTKELGYTVKKHLQDLSGRISRAR
notes: MegaRAP1 d3 with position 213 reverted to wild type; not shown: N-terminal hexahistidine and S-peptide tags of pET30(+)a
B14 showed a Kd in test [6] of 19 nM. The “% max” value in test [7] was 2%; in test [8], 94%.

B15: RAP d3 forward mutant E251K, K256A, K270E (ligand)
chain: LDRLRRVSHQGYSTEAEFEEPRVIDLWDLAQSANLTDKELEAFREELKHFKAKIEAHNHYQKQLEIAHEELRHAESVGDGERVSRSREKHALLEGRTKELGYTVKKHLQDLSGRISRAR
notes: also called triple mutant; not shown: N-terminal hexahistidine and S-peptide tags of pET30(+)a
B15: the Kd in test [6] worked out at 114 nM. Moreover, the “% max” value in [7] amounted to 2%; in test [8], 40%.

B16: MegaRAP1 d3 revertant E270K (ligand)
chain: LDRLRRVSHQGYTTEAKFEEPRVIDLWDLAQSANLTDKELEAFREELKYFKAKIEAHNHYQKQLEIAHEKLRHAESVGDGERVSRSREKHALLEGRTKELGYTVKKHLQDLSGRISRAR
notes: MegaRAP1 d3 with position 270 reverted to wild type; also called MegaRAP1 d3 E270K; E270K revertant; not shown: N-terminal hexahistidine and S-peptide tags of pET30(+)a
As for B16, the values for the Kd in test [3], in [5] and in [6] were 142 nM, 114 nM and 8 nM, respectively. Moreover, in test [8], the “% max” value is 100%.

B17: RAP d3 forward mutant E217K (ligand)
chain: LDRLRRVSHQGYSTEAKFEEPRVIDLWDLAQSANLTDKELEAFREELKHFEAKIEKHNHYQKQLEIAHEKLRHAESVGDGERVSRSREKHALLEGRTKELGYTVKKHLQDLSGRISRAR
notes: The paragraph gives only the position; the change E217K follows from the mutagenic primers and the MegaRAP1 mutation set; also called single-site RAP d3 mutant at 217; not shown: N-terminal hexahistidine and S-peptide tags of pET30(+)a
Consider B17, for which the binding result in test [9] was “no binding (tested: 100 nM)”. Further, binding in test [5] was characterised by a dissociation constant (Kd) of 9 nM. Besides, the entries for the “% max” value in test [7] and in [8] were 91% and 5%, respectively.

B18: MegaRAP1 d3 revertant Y249H (ligand)
chain: LDRLRRVSHQGYTTEAKFEEPRVIDLWDLAQSANLTDKELEAFREELKHFKAKIEAHNHYQKQLEIAHEELRHAESVGDGERVSRSREKHALLEGRTKELGYTVKKHLQDLSGRISRAR
notes: MegaRAP1 d3 with position 249 reverted to wild type; not shown: N-terminal hexahistidine and S-peptide tags of pET30(+)a
Consider B18, for which the figures for the “% max” value in test [7] and in [8] were 2% and 35%, respectively.

B19: MatRAP1 truncated variant, amino acids 243-313 (71 amino acids) (ligand)
chain: FREELKHFGAKIERHNHYQKQLEIAHEWLRHAESVGDGERVSRSREKHALLEGRTKELGYTVKKHLQDLSG
notes: also called best truncated variant; not shown: N-terminal hexahistidine and S-peptide tags of pET30(+)a
As to B19, the “fnctn (relative binding signal under isomolar conditions)” value in [2] was 2.7. Moreover, in test [1], the “fold increase in affinity over MatRAP1 N-42” value is 4 fold and the “fold increase in affinity over the full-length d3 variant” value stood at 12 fold.

B20: MatRAP1 truncated by 31 amino acids at the N-terminus (ligand)
chain: SANLTDKELEAFREELKHFGAKIERHNHYQKQLEIAHEWLRHAESVGDGERVSRSREKHALLEGRTKELGYTVKKHLQDLSGRISRAR
notes: Range derived from the number of residues removed; also called MatRAP1 N-31; not shown: N-terminal hexahistidine and S-peptide tags of pET30(+)a
Turning to B20, the “fnctn (relative binding signal under isomolar conditions)” value in [2] turned out to be 0.35.
